Measurements as given in patent publication EP0813419B1 (YEDA RESEARCH & DEVELOPMENT COMPANY, LTD., dated 2005).

B2: 'death domain' (DD) of human TRADD (residues 195-312) (other, not shown: large carriers)
chain: PPPPAQTFLFQGQPVVNRPLSLKDQQTFARSVGLKWRKVGRSLQRGCRALRDPALDSLAYEYEREGLYEQAFQLLRRFVQAEGRRATLQRLVEALEENELTSLAEDLLGLTDPNGGLA
notes: Gal4 hybrid construct in yeast; also called TRADD DD
B3: 'death domain' (DD) of human MORT-1 (residues 92-208) (other, not shown: large carriers)
chain: PGEEDLCAAFNVICDNVGKDWRRLARQLKVSDTKIDSIEDRYPRNLTERVRESLRIWKNTEKENATVAHLVGALRSCQMNLVADLVQEVQQARDLQNRSGAMSPMSWNSDASTSEAS
notes: Gal4 hybrid construct in yeast; also called HF1; MORT-1 DD

Experiments:
[1] = target: B3; test: yeast two-hybrid specificity test (not shown)
[2] = target: B2; test: yeast two-hybrid specificity test (not shown)
[3] = target: the molecule itself; test: yeast two-hybrid (Gal4 DBD and AD fusions, SFY526), beta-galactosidase filter assay; self-association
[4] = target: T1, intracellular domain of the human p75 TNF receptor (human, UniProt P20333 288-461, limits assumed); test: yeast two-hybrid specificity test (not shown)
T1 construct: domain: intracellular domain; construct not described; also called p75IC
T1 sequence (looked up): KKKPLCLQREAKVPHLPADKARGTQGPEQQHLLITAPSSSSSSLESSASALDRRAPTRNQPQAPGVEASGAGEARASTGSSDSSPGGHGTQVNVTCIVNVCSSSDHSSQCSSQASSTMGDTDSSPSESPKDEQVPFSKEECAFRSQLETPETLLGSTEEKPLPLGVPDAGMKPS

[5] = target: B2; test: yeast two-hybrid (Gal4 DBD and AD fusions, SFY526), beta-galactosidase filter assay

B1: DD of the rat low-affinity NGF receptor (receptor, UniProt P07174 340-425, looked up)
chain: LPLTKREEVEKLLNGDTWRHLAGELGYQPEHIDSFTHEACPVRALLASWGAQDSATLDALLAALRRIQRADIVESLCSESTATSPV
notes: domain: DD; Two-hybrid control; construct not described
binding result [1]: no binding | binding result [2]: no binding

B2
binding result [3]: binds | binding result [4]: no binding

B3
binding result [3]: no binding | binding result [5]: binds | binding result [4]: no binding
